# Measured values: patent publication US20130243746
# Biological target: recombinant human acid alpha glucosidase (rhGAA), 110 kDa precursor
protein,measurement,value
"recombinant Aspergillus oryzae alkaline protease expressed in Yarrowia lipolytica (strains OXYY2184 and OXYY2122), mature form with linker and His tag (protein) GLTTQKSAPWGLGSISHKGQQSTDYIYDTSAGEGTYAYVVDSGVNVDHEEFEGRASKAYNAAGGQHVDSIGHGTHVSGTIAGKTYGIAKKASILSVKVFQGESSSTSVILDGFNWAANDIVSKKRTSKAAINMSLGGGYSKAFNDAVENAFEQGVLSVVAAGNENSDAGQTSPASAPDAITVAAIQKSNNRASFSNFGKVVDVFAPGQDILSAWIGSSSATNTISGTSMATPHIVGLSLYLAALENLDGPAAVTKRIKELATKDVVKDVKGSPNLLAYNGNASGGGHHHHHHHHHH",processing of the 110 kDa rhGAA precursor in culture supernatant of the co-expressing strain OXYY2122 (SDS-PAGE and immunoblot),This processing was complete; no 110 kDa form was detected
same,"proteolysis of rhGAA to the 95 kDa form (weight:weight ratio 200:1 total protein:protease, 16 h at 30 C; SDS-PAGE)",resulted in a full proteolysis to the 95 kDa product
